Measurements: the supplement of paper PMC9112550, “Optimization of the antimicrobial peptide Bac7 by deep mutational scanning” (BMC Biology, 2022)

System: Escherichia coli TOP10
Assay: shrunken log2 fold change of peptide-encoding DNA abundance (4.5 h post-induction vs induction); higher = less antimicrobial activity (less host growth inhibition)
Settings: time post-induction: 4.5 h; library: site-saturation at positions 5, 18, 19, 20
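Note: peptides expressed intracellularly from a pBAD plasmid library in pooled LB shake-flask culture, induced with 0.3% L-arabinose, DNA abundance read by NGS, three biological replicates, DESeq2 with apeglm shrinkage.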

RRIRFRPPRLPRPRPRPWAHPRP
shrunken log2 fold change: 0.195

RRIRNRPPRLPRPRPRPSYIPRP
shrunken log2 fold change: -0.637

RRIRQRPPRLPRPRPRPRCKPRP
shrunken log2 fold change: 0.268

RRIRSRPPRLPRPRPRPHLIPRP
shrunken log2 fold change: -0.303

RRIRARPPRLPRPRPRPMEMPRP
shrunken log2 fold change: 0.163

RRIRGRPPRLPRPRPRPAMNPRP
shrunken log2 fold change: 0.542

RRIRKRPPRLPRPRPRPPVLPRP
shrunken log2 fold change: -0.0742

RRIRNRPPRLPRPRPRPTMHPRP
shrunken log2 fold change: -0.159

RRIRVRPPRLPRPRPRPWQRPRP
shrunken log2 fold change: 0.0171

RRIRWRPPRLPRPRPRPASGPRP
shrunken log2 fold change: 0.461

RRIRSRPPRLPRPRPRPTHQPRP
shrunken log2 fold change: 0.417

RRIRTRPPRLPRPRPRPWLFPRP
shrunken log2 fold change: 0.212

RRIRFRPPRLPRPRPRPNKQPRP
shrunken log2 fold change: 0.0839

RRIRFRPPRLPRPRPRPQHTPRP
shrunken log2 fold change: -0.164

RRIRKRPPRLPRPRPRPPRHPRP
shrunken log2 fold change: 1.04

RRIRSRPPRLPRPRPRPCDTPRP
shrunken log2 fold change: -0.227

RRIRLRPPRLPRPRPRPPMSPRP
shrunken log2 fold change: 0.0743

RRIRLRPPRLPRPRPRPEKLPRP
shrunken log2 fold change: -0.00411

RRIRFRPPRLPRPRPRPMGKPRP
shrunken log2 fold change: -0.307

RRIRWRPPRLPRPRPRPRQDPRP
shrunken log2 fold change: 0.796

RRIRLRPPRLPRPRPRPAQMPRP
shrunken log2 fold change: 0.122

RRIRARPPRLPRPRPRPSNNPRP
shrunken log2 fold change: -0.376

RRIRWRPPRLPRPRPRPERVPRP
shrunken log2 fold change: 0.447

RRIRKRPPRLPRPRPRPAEKPRP
shrunken log2 fold change: 0.477

RRIRCRPPRLPRPRPRPWRRPRP
shrunken log2 fold change: 0.0523

RRIRERPPRLPRPRPRPQHPPRP
shrunken log2 fold change: -0.367

RRIRPRPPRLPRPRPRPLGLPRP
shrunken log2 fold change: -0.124

RRIRPRPPRLPRPRPRPHLDPRP
shrunken log2 fold change: 0.158

RRIRYRPPRLPRPRPRPLFAPRP
shrunken log2 fold change: -0.492

RRIRMRPPRLPRPRPRPFAIPRP
shrunken log2 fold change: -0.0351

RRIRYRPPRLPRPRPRPLTIPRP
shrunken log2 fold change: -0.0265

RRIRYRPPRLPRPRPRPPRYPRP
shrunken log2 fold change: -0.226

RRIRSRPPRLPRPRPRPGVSPRP
shrunken log2 fold change: 0.119

RRIRFRPPRLPRPRPRPPAMPRP
shrunken log2 fold change: 0.775

RRIRDRPPRLPRPRPRPVAKPRP
shrunken log2 fold change: 0.356

RRIRQRPPRLPRPRPRPFRIPRP
shrunken log2 fold change: -0.0135

RRIRLRPPRLPRPRPRPMTKPRP
shrunken log2 fold change: 0.0751

RRIRLRPPRLPRPRPRPIPGPRP
shrunken log2 fold change: 0.00419

RRIRWRPPRLPRPRPRPILTPRP
shrunken log2 fold change: 0.00604

RRIRDRPPRLPRPRPRPVDSPRP
shrunken log2 fold change: -0.0208

RRIRKRPPRLPRPRPRPHAMPRP
shrunken log2 fold change: -0.0147

RRIRMRPPRLPRPRPRPTEFPRP
shrunken log2 fold change: 0.0756

RRIRQRPPRLPRPRPRPHAKPRP
shrunken log2 fold change: 0.12

RRIRSRPPRLPRPRPRPDVQPRP
shrunken log2 fold change: -0.147

RRIRSRPPRLPRPRPRPPQRPRP
shrunken log2 fold change: 0.451

RRIRGRPPRLPRPRPRPATAPRP
shrunken log2 fold change: 0.979

RRIRGRPPRLPRPRPRPHNNPRP
shrunken log2 fold change: -0.215

RRIRHRPPRLPRPRPRPPPCPRP
shrunken log2 fold change: 0.603

RRIRERPPRLPRPRPRPGNHPRP
shrunken log2 fold change: -0.141

RRIRTRPPRLPRPRPRPRRCPRP
shrunken log2 fold change: 0.0091

RRIRVRPPRLPRPRPRPWPGPRP
shrunken log2 fold change: 0.101

RRIRPRPPRLPRPRPRPNYPPRP
shrunken log2 fold change: -0.392

RRIRHRPPRLPRPRPRPGIKPRP
shrunken log2 fold change: 0.0126

RRIRTRPPRLPRPRPRPSKSPRP
shrunken log2 fold change: -0.437

RRIRERPPRLPRPRPRPGYKPRP
shrunken log2 fold change: -0.11

RRIRMRPPRLPRPRPRPYCWPRP
shrunken log2 fold change: -0.134

RRIRNRPPRLPRPRPRPICWPRP
shrunken log2 fold change: -0.0674

RRIRGRPPRLPRPRPRPGWAPRP
shrunken log2 fold change: 0.992

RRIRLRPPRLPRPRPRPWSTPRP
shrunken log2 fold change: -0.137

RRIRIRPPRLPRPRPRPFAHPRP
shrunken log2 fold change: -0.241

RRIRNRPPRLPRPRPRPKCAPRP
shrunken log2 fold change: 0.243

RRIRCRPPRLPRPRPRPDRFPRP
shrunken log2 fold change: 0.0616

RRIRGRPPRLPRPRPRPYDRPRP
shrunken log2 fold change: 0.136

RRIRERPPRLPRPRPRPKMGPRP
shrunken log2 fold change: 0.00452

RRIRGRPPRLPRPRPRPYKNPRP
shrunken log2 fold change: -0.22

RRIRNRPPRLPRPRPRPSWNPRP
shrunken log2 fold change: -0.191

RRIRWRPPRLPRPRPRPLNPPRP
shrunken log2 fold change: -0.0128

RRIRVRPPRLPRPRPRPSFQPRP
shrunken log2 fold change: -0.22

RRIRFRPPRLPRPRPRPVDHPRP
shrunken log2 fold change: -0.179

RRIRIRPPRLPRPRPRPMESPRP
shrunken log2 fold change: -0.00136

RRIRRRPPRLPRPRPRPIRIPRP
shrunken log2 fold change: -0.106

RRIRHRPPRLPRPRPRPECFPRP
shrunken log2 fold change: -0.0176

RRIRRRPPRLPRPRPRPDHYPRP
shrunken log2 fold change: -2.95

RRIRYRPPRLPRPRPRPVDGPRP
shrunken log2 fold change: -0.0183

RRIRMRPPRLPRPRPRPKHSPRP
shrunken log2 fold change: 0.247

RRIRIRPPRLPRPRPRPPARPRP
shrunken log2 fold change: 0.393

RRIRGRPPRLPRPRPRPDRRPRP
shrunken log2 fold change: -0.12

RRIRSRPPRLPRPRPRPAKTPRP
shrunken log2 fold change: 0.111

RRIRYRPPRLPRPRPRPNPLPRP
shrunken log2 fold change: -0.766

RRIRYRPPRLPRPRPRPCFPPRP
shrunken log2 fold change: -1.06

RRIRNRPPRLPRPRPRPAYGPRP
shrunken log2 fold change: 0.118

RRIRWRPPRLPRPRPRPVAQPRP
shrunken log2 fold change: 0.386

RRIRHRPPRLPRPRPRPEVEPRP
shrunken log2 fold change: -0.00133

RRIRSRPPRLPRPRPRPMDKPRP
shrunken log2 fold change: 0.0107

RRIRVRPPRLPRPRPRPQHEPRP
shrunken log2 fold change: -0.245

RRIRQRPPRLPRPRPRPQNDPRP
shrunken log2 fold change: 0.119

RRIRVRPPRLPRPRPRPSITPRP
shrunken log2 fold change: -0.504

RRIRMRPPRLPRPRPRPDTRPRP
shrunken log2 fold change: -0.0141

RRIRDRPPRLPRPRPRPHCIPRP
shrunken log2 fold change: -0.00742

RRIRYRPPRLPRPRPRPDLCPRP
shrunken log2 fold change: 0.0404

RRIRHRPPRLPRPRPRPCCSPRP
shrunken log2 fold change: -0.313

RRIRSRPPRLPRPRPRPHKIPRP
shrunken log2 fold change: -0.48

RRIRMRPPRLPRPRPRPTGPPRP
shrunken log2 fold change: 0.388

RRIRHRPPRLPRPRPRPDCIPRP
shrunken log2 fold change: -0.0444

RRIRMRPPRLPRPRPRPWFDPRP
shrunken log2 fold change: 0.00362

RRIRHRPPRLPRPRPRPKSRPRP
shrunken log2 fold change: -0.0231

RRIRNRPPRLPRPRPRPIVAPRP
shrunken log2 fold change: -0.367

RRIRNRPPRLPRPRPRPHCKPRP
shrunken log2 fold change: -0.249

RRIRKRPPRLPRPRPRPTGQPRP
shrunken log2 fold change: 0.84

RRIRQRPPRLPRPRPRPCPCPRP
shrunken log2 fold change: -0.354

RRIRSRPPRLPRPRPRPADHPRP
shrunken log2 fold change: -0.166

RRIRERPPRLPRPRPRPIFEPRP
shrunken log2 fold change: 0.0601

RRIRLRPPRLPRPRPRPNTRPRP
shrunken log2 fold change: -0.273

RRIRTRPPRLPRPRPRPGNRPRP
shrunken log2 fold change: 0.192

RRIRKRPPRLPRPRPRPCTKPRP
shrunken log2 fold change: 0.0518

RRIRHRPPRLPRPRPRPMWAPRP
shrunken log2 fold change: -0.0936

RRIRKRPPRLPRPRPRPWCIPRP
shrunken log2 fold change: -0.103

RRIRSRPPRLPRPRPRPFFPPRP
shrunken log2 fold change: -0.196

RRIRTRPPRLPRPRPRPLQEPRP
shrunken log2 fold change: 0.0814

RRIRIRPPRLPRPRPRPMQCPRP
shrunken log2 fold change: -0.235

RRIRDRPPRLPRPRPRPKAIPRP
shrunken log2 fold change: -0.0326

RRIRPRPPRLPRPRPRPPSMPRP
shrunken log2 fold change: 0.29

RRIRMRPPRLPRPRPRPMINPRP
shrunken log2 fold change: -0.00763

RRIRPRPPRLPRPRPRPCFNPRP
shrunken log2 fold change: -0.512

RRIRQRPPRLPRPRPRPNFSPRP
shrunken log2 fold change: -0.23

RRIRFRPPRLPRPRPRPFKMPRP
shrunken log2 fold change: 1.77

RRIRRRPPRLPRPRPRPKPSPRP
shrunken log2 fold change: 0.294

RRIRFRPPRLPRPRPRPDEIPRP
shrunken log2 fold change: -0.022

RRIRHRPPRLPRPRPRPFVAPRP
shrunken log2 fold change: 1.81

RRIRQRPPRLPRPRPRPQIVPRP
shrunken log2 fold change: -0.026

RRIRRRPPRLPRPRPRPFRVPRP
shrunken log2 fold change: 0.12

RRIRARPPRLPRPRPRPNGLPRP
shrunken log2 fold change: -0.0319

RRIRPRPPRLPRPRPRPDDHPRP
shrunken log2 fold change: -0.0314

RRIRTRPPRLPRPRPRPICEPRP
shrunken log2 fold change: 0.0143

RRIRGRPPRLPRPRPRPIHEPRP
shrunken log2 fold change: -0.135

RRIRMRPPRLPRPRPRPFWRPRP
shrunken log2 fold change: 0.463

RRIRWRPPRLPRPRPRPDQPPRP
shrunken log2 fold change: 0.234

RRIRPRPPRLPRPRPRPPDSPRP
shrunken log2 fold change: 0.326

RRIRTRPPRLPRPRPRPSMCPRP
shrunken log2 fold change: -0.377

RRIRYRPPRLPRPRPRPFANPRP
shrunken log2 fold change: -0.245

RRIRFRPPRLPRPRPRPGAAPRP
shrunken log2 fold change: 0.517

RRIRVRPPRLPRPRPRPFPHPRP
shrunken log2 fold change: -0.366

RRIRPRPPRLPRPRPRPVDTPRP
shrunken log2 fold change: -0.592

RRIRFRPPRLPRPRPRPDKMPRP
shrunken log2 fold change: 0.0125

RRIRVRPPRLPRPRPRPGYGPRP
shrunken log2 fold change: 0.0756

RRIRGRPPRLPRPRPRPGETPRP
shrunken log2 fold change: 0.515

RRIRDRPPRLPRPRPRPMNLPRP
shrunken log2 fold change: -0.1

RRIRPRPPRLPRPRPRPHFYPRP
shrunken log2 fold change: -0.217

RRIRKRPPRLPRPRPRPEITPRP
shrunken log2 fold change: 2.03

RRIRNRPPRLPRPRPRPQHTPRP
shrunken log2 fold change: -0.402

RRIRYRPPRLPRPRPRPTHWPRP
shrunken log2 fold change: 0.272

RRIRTRPPRLPRPRPRPGKIPRP
shrunken log2 fold change: 0.0168

RRIRKRPPRLPRPRPRPCDMPRP
shrunken log2 fold change: -0.00141

RRIRPRPPRLPRPRPRPVHFPRP
shrunken log2 fold change: -0.342

RRIRVRPPRLPRPRPRPYGAPRP
shrunken log2 fold change: 0.162

RRIRPRPPRLPRPRPRPYNAPRP
shrunken log2 fold change: -0.608

RRIRNRPPRLPRPRPRPAPYPRP
shrunken log2 fold change: 0.0296

RRIRRRPPRLPRPRPRPACKPRP
shrunken log2 fold change: 0.163

RRIRERPPRLPRPRPRPGMHPRP
shrunken log2 fold change: 0.0491

RRIRWRPPRLPRPRPRPAWYPRP
shrunken log2 fold change: 0.0415
